Laboratory results: the DeepSol protein solubility set

Assay: soluble on expression in E. coli; label from the status in PepcDB or PDB records

Q: With “MSGALKENSGKPSEVEYTHFKDLQALEMERGRLYETIVVTWDDSMVGNAAPIGVLCTGDDTVTLYLYQGTRTVENVLNNGRFTVNVTLDPLIFTDSTLGDLEEDMFSHYRDFLHLRGADAFFTAEVVSVKKLVKRDRFGESELHVVKARAGDVMRAESFRMALNRGIYAVIESLIAYTRAEFSDPLVLRERIAEMNRVARKVGGPREKEAMRRIIQALESKIS” as the sequence, how does the “soluble on expression in E. coli” value read?
A: Its value is “not soluble”.

Q: With “MLAGLQKTTLVNFPRRVAAAVFLPGCNIRCPYCHNAELALASPSSFTANQESSNDYYELSEIYTFLERRKNLISGLVISGGEPFMSPALFELIERAKSLNLAVKIDTNGLFPERIEEVLRSSNLQPDMIAIDVKTSPERYGELLASKTDSAAKKAKTALLKTLDILKSNTEKTEVEYRTVLAPPLVSEDEIKKIASLLPKNARWRLAQFVPGTCLNPEWNSVEPYPLSQAQALTAIAKSLIPDTELR” as the sequence, how does the “soluble on expression in E. coli” value read?
A: Its value is “not soluble”.

Q: For “VVKQDLSDNQYIQKKPNEITSNELLLPLPNDKLLGDPKAPILMIEYASLTCYHCSLFHRNVFPKIKEKYIDTGKMLYIFRHFPLDYRGLKAAMLSHCYEKQEDYFNFNKAVFNSIDSWNYYNLSDLTLLQRIAALSNLKQDAFNQCINDKKIMDKIVNDKSLAINKLGITAVPIFFIKLNDDKSYIEHNKVKHGGYKELKYFTNVIDKLYGKAIVKLEHHHHHHHH”, which “soluble on expression in E. coli” value is on record?
A: Its value is “soluble”.

Q: With “MISRHFTVLTALNLQTKIKICIRNFSIRGAMTKVNGNSNGNGISASTDLLDTPSAYTQKSNKTHTSIDLRSDTVTVPSVEMRRAMAEAIVGDDVYGEDTTTNRLEQRCAELFGKEAGLFVTSGTMGNLLAIMAHCQRGEEIIVGRYNHIHRWEQGNYAQFAGISATTLEVKPDGTMDLNDIEQAIRVKGGYVQIKDESCDDLEVTSIPDCHMPASKLICIENTHNYTGGKALPIEWMRSVKQLAERRDLKVHMDGARIYNAAVASNCSVSKIASFADTVQMCFSKGLGAPVGSIVVGPKDFIDRARHSRKALGGGWRQSGILAAAAHIALDHADATIRADHERAKTLARMINDATPEEFRTKVFAAEKDITNMVLVHCQNGVTVQQLTDFFQKHDILAMTFDARRIRMVLNWNVSDENLETIVEVYKKFLKQL” as the sequence, how does the “soluble on expression in E. coli” value read?
A: Its value is “not soluble”.

Q: For “MLLKTIYCKVEEEKKKLFSNAQEKWSDIRHLDGFHGQFGGWYEDEACVFTLWEDRSTYQSFMNGAHDTIYLNSNQEDTFLSCEIELFQTLYDITDTHLKDVVTEGSFVRVAICDVKVEKEKYFLQKQETIWNKGMEKAKGMLGGVVGKSLKNENRYIVLTYWKDEQTHQHYVEEIFPDLYKLANIHEDIEEIKGKQAVCKEEWLVY”, which “soluble on expression in E. coli” value is on record?
A: The value was “not soluble”.

Q: For “MNKEEIILSAKNWMHSHFENETTGHDWSHIKRVWKLSKEIQSKEGGDLFTIELAALFHDYSDIKLTTDEQEATKTLINWMETKEIPSELIKKIIRIIQSVSFKKGKNTFKALTIEEKIVQDADRLDAIGAIGIARTFTYGGAHNREIANQNNPKNTTLQHFYDKLLLIKDQLNTETAKTIAKEKQKIMQDFIQALEKELKVLEHHHHHH”, which “soluble on expression in E. coli” value is on record?
A: Its value is “soluble”.

Q: Which “soluble on expression in E. coli” value does the source give for “MFHLRTCAAKLRPLTASQTVKTFSQNRPAAARTFQQIRCYSAPVAAEPFLSGTSSNYVEEMYCAWLENPKSVHKSWDIFFRNTNAGAPPGTAYQSPLPLSRGSLAAVAHAQSLVEAQPNVDKLVEDHLAVQSLIRAYQIRGHHVAQLDPLGILDADLDSSVPADIISSTDKLGFYGLDESDLDKVFHLPTTTFIGGQESALPLREIIRRLEMAYCQHIGVEFMFINDLEQCQWIRQKFETPGIMQFTNEEKRTLLARLVRSTRFEEFLQRKWSSEKRFGLEGCEVLIPALKTIIDKSSENGVDYVIMGMPHRGRLNVLANVIRKELEQIFCQFDSKLEAADEGSGDVKYHLGMYHRRINRVTDRNITLSLVANPSHLEAADPVVMGKTKAEQFYCGDTEGKKVMSILLHGDAAFAGQGIVYETFHLSDLPSYTTHGTVHVVVNNQIGFTTDPRMARSSPYPTDVARVVNAPIFHVNSDDPEAVMYVCKVAAEWRSTFHKDVVVDLVCYRRNGHNEMDEPMFTQPLMYKQIRKQKPVLQKYAELLVSQGVVNQPEYEEEISKYDKICEEAFARSKDEKILHIKHWLDSPWPGFFTLDGQPRSMSCPSTGLTEDILTHIGNVASSVPVENFTIHGGLSRILKTRGEMVKNRTVDWALAEYMAFGSLLKEGIHIRLSGQDVERGTFSHRHHVLHDQNVDKRTCIPMNHLWPNQAPYTVCNSSLSEYGVLGFEAGLRMASPNALVLWEAQFGDFHNTAQCIIDQFICPGQAKWVRQNGIVLLLPHGMEGMGPEHSSARPERFLQMCNDDPDVLPDLKEANFDINQLYDCNWVVVNCSTPGNFFHVLRRQILLPFRKPLIIFTPKSLLRHPEARSSFDEMLPGTHFQRVIPEDGPAAQNPENVKRLLFCTGKVYYDLTRERKARDMVGQVAITRIEQLSPFPFDLLLKEVQKYPNAELAWCQEEHKNQGYYDYVKPRLRTTISRAKPVWYAGRNPAAAPATGNKKTH” here?
A: Its value is “soluble”.

Q: With “MNNVFVYCEIEGTTVADVSLELLTKGRKLANQLGCQLEAIAAGTGLAGIEKQVLPYGVDKLHVFDAPGLFPYTSLPHTSILVNLFKEEKPQICLMGATVIGRDLGPRVSSALTSGLTADCTQLEIGTHEDKKNGITYENLLYQIRPAFGGNIVATIVNPEHRPQMATVREGVMKKEILDENYKGEVVNHDVAKFVPETDYVV” as the sequence, how does the “soluble on expression in E. coli” value read?
A: Its value is “not soluble”.

Q: With “MLKKRELQDCHALYELMVHPDVFPFVRQKASSYEEFLFMTKQLMEAEERGELISRTILDEWGNPIGTISLFDIQDGAGFLGTWLGKPYHGLGYNRRAKEAFFHELFYELSIETVFLRIRKVNVRSIKAAEKLPYVTPANETRRALLEQIGADVYNLYEITKDNYTLYTMRHPSFAHNEEQRKEA” as the sequence, how does the “soluble on expression in E. coli” value read?
A: The value was “not soluble”.

Q: Which “soluble on expression in E. coli” value does the source give for “MSKRTTPTYPVEVIRSDRRTRTVSARLVGGKILIRIPASMSKKDEKKFVAEMVDKVRTKTQSSAPTDEALLHRAQHLNRTVLENRATIGSIRWVTNQTRRWGSCSQTTNDIRISHRLQGVPDYVLDAVIIHEMVHTFIEGGHSPEFWQWADKAPKAERAKGYLEAWQRMGDVGLEHHHHHH” here?
A: Its value is “not soluble”.

Q: Which “soluble on expression in E. coli” value does the source give for “EVQLQQSGPELVKPGTSVKMSCKASGYTFTDYYMKWVKHSHGKSLEWIGDINPSNGGTLYNQKFKGKATLTVDKSSSTASMQLSRLTSEDSAVYYCSRGDGIHGGFAYWGQGTTVTVSSAKTTAPSVYPLAPVCGDTTGSSVTLGCLVKGYFPEPVTLTWNSGSLSSGVHTFPAVLQSDLYTLSSSVTVTSSTWPSQSITCNVAHPASSTKVDKKIVPQV” here?
A: The value was “soluble”.

Q: With “MLTVTDYYKELLNFCARTLKDRDAAADLVQEAYTRFLVAQRSGAAIADPRALLFRTTRNLLIDQHRRAEVRMHLSLDTLLEEEQPLAPRHLQPEEVLAFSRYAQALYAAIESLPRRCREAFILNRFDGLSHQEVAEKMGISRNMVAQHIIRGVLVCKACDDRFHGRVVLASKPAE” as the sequence, how does the “soluble on expression in E. coli” value read?
A: The value was “not soluble”.

Q: For “MRHTCPKVTLRQRAIRNGRISLYLDYYPAVRNPETMQMSRREYLGIYIYAHPKNEMEREFNMDMLNKAEAIRCIRVQSLINEEFGFLDRTKMKTDFLAYFLKMCRKKDQKWRIVYQHFYNYVQGHCTFGDITIELCQGFREYLLNAKQLKRKGKVSTNSASGYYSTFRGLLKIAYRDKWLRENINDFLDKIEAKEVKKEYLTLDEVKILAQTPCEHDVLKRASLFSCLTGLRISDILNLRWEDFTLAPDQGYCIRIRTQKTSTEATLPIS”, which “soluble on expression in E. coli” value is on record?
A: The value was “not soluble”.

Q: With “MAHHHHHHMQRSMMRELCYVGSVALSPMRPKKNAFKLRERGETTRLFCANSEMSNFYGINESGFSNTRPPPYLLRFDKCNDVIAYTNEIDNESLKQIKNLAKLHIIKGHITILPDVHLGKGIIIGSVFLTKHFIIPNGVGVDIGCGVLCVKINKLKKKNLHEGVINNIYKKIKRNIPLSFDYHEKEVFDAKNVLDELVAKYASSNMAHIMNPKHLKQMGTLGGGNHFIEIAYDASGDVKAEPINGNLSGEAHQNDNTQKYACQQNHYPESDIYILIHSGSRNIGKSTAEFYDDLASHESKVKRNDLAYLDLRKKHGQNYLRDMQLCQEYAKYNRIYMMKIIEQIIKEELNCTLDWQNAINIHHNFCNHELVNYFHNGEVKKEYMYVTRKGATSSMKNQLGIIPGNMKVGSYIVRGKGNKLSYNSCSHGCGRVLSRTHAKKIINQADFVNIMKGVRCDTSAKIRDEATQAYKNLNKVLRNQDSLIHVVRRLLPLINVKGG” as the sequence, how does the “soluble on expression in E. coli” value read?
A: Its value is “not soluble”.

Q: With “AIAPRNNKTSLIQKIASQAYATFTNCSSSAIEDNNKVFLEHQADLVALLSDIRAADLKIAPPTKVSTSSPSVPPVTYMHICETDVFSMGVFLLKSGASIPLHDHPGMHGMLKVLYGKVSIRCYDKLDKAESDTERHFDPPLLAFQGDDVRRAALRSSGQFSELSGPCVLSPFKDNLHEIDAVDGAAAFLDILAPPYDPDDGRDCHYYRVLQTAGKKSEQSGDDEAWLLEIPQPDDFWCGGEPYPGPEVTI” as the sequence, how does the “soluble on expression in E. coli” value read?
A: Its value is “soluble”.

Q: Which “soluble on expression in E. coli” value does the source give for “MSLIQGKAIIIGGGPCGLSAAIHLKQIGIDALVIEKGNVVNSIYNYPTHQTFFSSSEKLEIGDVAFITENRKPVRIQALSYYREVVKRKNIRVNAFEMVRKVTKTQNNTFVIETSKETYTTPYCIIATGYYDHPNYMGVPGEDLPKVFHYFKEGHPYFDKDVVVIGGKNSSVDAALELVKSGARVTVLYRGNEYSPSIKPWILPEFEALVRNGTIRMEFGACVEKITENEVVFRSGEKELITIKNDFVFAMTGYHPDHQFLEKIGVEIDKETGRPFFNEETMETNVEGVFIAGVIAAGNNANEIFIENGRFHGGHIAAEIAKRENHEGHHHHHH” here?
A: The value was “soluble”.

Q: Which “soluble on expression in E. coli” value does the source give for “SLPEKVLVAGNNVRNVAESASKAGFEVFAITKFVDADLRIYCREVERVDDSLPEKEIAKKIEDKAEEIDAKVVLCSGFETLRVRGELLCNPYGKVERVANKLKFYRELEKAGLPFPELLGEGERGIIKPVVGGGGEEVVMGEEVPKGFLKQRFVSGTPCSVSVIANGERALPLACNLIYAGWKEMNASGFRYSGNMTPFIVEEEIRKELERLAVEAVELFGLAGSVGVDFVLAEKPYILEINPRFQGSLDSVEWSCDVNLFKMHAEAFDGRLPERVRPRRYALRAILFSPRDVEIKENLAGNPFYADVPGKGERYGKNDPLVSILAAGKSREDVERRVLERRDLFLSLA” here?
A: The value was “not soluble”.

Q: Which “soluble on expression in E. coli” value does the source give for “MKDLDFSKKPLIGVVHLKPLPGSPRYGGDFEEVIEWAIRDAKTYEEAGFDGIIVENFGDSPFSKTLPREVIPAFTVVAKAVKKEVSLPLGINALRNDCIVAYSIAHAVGGSFIRVNVLTGVAFTDQGIIEGCARELWNVKRIIGGDILTLADVHVKHAVHFTNFEDAVKDTVERGLADGIIVTGRRTGESISLEDLILAKRVSSIPVLVGSGVNPRNFRTLFKYADGFIVGTWVKENGKINNPVSLERAKILVRMKNSLMGVLEHHHHHH” here?
A: The value was “not soluble”.

Q: Which “soluble on expression in E. coli” value does the source give for “YGKQRKASVIGAINTVSMNELKMPVAKLSSGLAGQLAGIVVMQRSGEPGAGADFWIRGINTFGAGNKPLVLVDGVERSMDLVDVEDIASFSILKDATATALYGVRGANGIVLITTKRGTES” here?
A: Its value is “not soluble”.

Q: Which “soluble on expression in E. coli” value does the source give for “MSLKKIQFFDTTLRDGEQTPGVNFDVKEKIQIALQLEKLGIDVIEAGFPISSPGDFECVKAIAKAIKHCSVTGLARCVEGDIDRAEEALKDAVSPQIHIFLATSDVHMEYKLKMSRAEVLASIKHHISYARQKFDVVQFSPEDATRSDRAFLIEAVQTAIDAGATVINIPDTVGYTNPTEFGQLFQDLRREIKQFDDIIFASHCHDDLGMATANALAAIENGARRVEGTINGIGERAGNTALEEVAVALHIRKDFYQAETNIVLNQFKNSSDLISRLSGMPVPRNEGHHHHHH” here?
A: The value was “soluble”.

Q: For “FVNKDQIAKDVKQFYDQALQQAVVDDDANNAKAVVKTFHETLDCCGSSTLTALTTSVLKNNLCPSGSNIISNLFKEDCHQKIDDLFSGKH”, which “soluble on expression in E. coli” value is on record?
A: Its value is “soluble”.
